{
  "source": "paper PMC5435865",
  "about": "“A biochemical framework for eIF4E-dependent mRNA export and nuclear recycling of the export machinery” (RNA, 2017)",
  "binders": {"B1": {"name": "synthetic peptide LRP10A (N-Ac-EGFPIRPHYFWPLLVGRRKEK-NH2) (peptide)", "peptide": "Ac-EGFPIRPHYFWPLLVGRRKEK-NH2", "notes": "human LRPPRC, residues 433-453 (helix 10A); source: synthetic peptide, bought: Biomatic Corporation"}},
  "biological_target": "T1, ^15N-labeled human eIF4E (human, UniProt P06730 1-217)",
  "T1 construct": "human eukaryotic translation initiation factor eIF4E, in pET-15b; Uniformly ^15N-labeled; also called cap-free eIF4E; source: overexpressed and purified as described in Volpon et al. (2016)",
  "T1 sequence (P06730 whole entry)": "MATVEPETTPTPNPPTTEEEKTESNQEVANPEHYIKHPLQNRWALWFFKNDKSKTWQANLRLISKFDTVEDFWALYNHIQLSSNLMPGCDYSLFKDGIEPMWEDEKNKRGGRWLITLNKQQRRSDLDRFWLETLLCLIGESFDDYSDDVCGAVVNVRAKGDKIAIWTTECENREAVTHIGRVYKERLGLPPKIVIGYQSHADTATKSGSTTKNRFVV",
  "experiment": "NMR titration; ^1H–^15N HSQC of ~40 µM ^15N-labeled cap-free eIF4E, unlabeled LRP10A added to ratio 1:4; 20°C, 50 mM sodium phosphate pH 7.3, 100 mM NaCl, 1 mM DTT, 7% D2O",
  "conditions": "both partners purified",
  "data": [
    {"binder": "B1", "values": [
      {"measurement": "binding result", "value": "binds"}
    ]}
  ]
}
